Reference: article PMC11844742, “Structural basis of aquaporin-4 autoantibody binding in neuromyelitis optica” (Science Advances, 2025)
Several values for one entry are separate records, joined by “and”; a condition that tells them apart may be missing. Equal entries are not always repeated.

Legend:
Details in all cases: both partners purified
[1] = target: T1, human aquaporin-4 (AQP4) isoform M1, full length, tetramer in MSP1E3D1 lipid nanodiscs (human, UniProt P55087-1); experiment: cryo-EM 2D classification; AQP4 M1 in nanodiscs mixed with 30-fold molar excess of Fab186; severe orientation bias, no high-resolution map
T1 construct: aquaporin-4, human, isoform M1, full length (residues 1 to 323); synthesized gene in pPICZ; a thrombin cleavage site lies between the tags and the protein; Homo-tetramer embedded in a nanodisc (soybean polar lipids, MSP1E3D1); for BLI the MSP 1E3D1 was biotinylated; also called AQP4 M1; M1 tetramer; not shown: 8xHis, N-terminal, kept
T1 sequence (P55087 whole entry, the tested form may be a part, canonical isoform): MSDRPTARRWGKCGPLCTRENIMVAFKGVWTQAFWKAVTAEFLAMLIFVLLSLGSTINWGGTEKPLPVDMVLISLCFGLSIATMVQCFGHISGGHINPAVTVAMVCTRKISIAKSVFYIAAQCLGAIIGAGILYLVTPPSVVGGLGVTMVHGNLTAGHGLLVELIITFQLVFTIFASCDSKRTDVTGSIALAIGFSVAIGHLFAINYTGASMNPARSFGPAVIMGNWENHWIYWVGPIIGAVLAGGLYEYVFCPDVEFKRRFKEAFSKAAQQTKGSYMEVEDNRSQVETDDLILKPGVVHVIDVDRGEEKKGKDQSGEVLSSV

[2] = target: T2, human aquaporin-4 (AQP4) isoform M1, full length, tetramer in detergent (human, UniProt P55087-1); experiment: cryo-EM structure; AQP4 in detergent, 18 uM, mixed with ~75 uM Fab186; ~12 uM AQP4 on grids; no symmetry imposed; 2.9 A
T2 construct: aquaporin-4, human, isoform M1, full length (residues 1 to 323); synthesized gene in pPICZ; The purification protocol says the N-terminal tag was cleaved by thrombin; also called AQP4 M1; AQP4 in detergent; source: Pichia pastoris X-33 (strain MG3), purified in DDM (Ni-NTA, thrombin cleavage, cobalt resin, SEC Superdex 200); not shown: 8xHis, N-terminal, cleaved
T2 sequence (P55087 whole entry, the tested form may be a part, canonical isoform): as above

[3] = target: T1, human aquaporin-4 (AQP4) isoform M1, …; experiment: cryo-EM structure; AQP4 M1 in nanodiscs (0.3 uM) mixed with ~5-fold molar excess of Fab58; no symmetry imposed; 2.5 A

Binder	stoichiometry N [1] [Fab per AQP4 tetramer]	stoichiometry N [2]	stoichiometry N [3] [Fab per AQP4 tetramer]
Fab186, Fab fragment of patient-derived NMO recombinant antibody rAb186 (Fab, V domains shown, heavy chain (HC) of Fab186 in the deposited model PDB 8V9D; light chain (LC) of Fab186 in the deposited model PDB 8V9D; also called rAB186 Fab; source: rAb186 IgG from Expi293F (MabSelect purified), papain cleavage (Pierce Fab kit), Fc removed with Protein A agarose) VH: QVQLQESGPGLVKPSQTLPLTCTVSGGYISSGSHQWGWIRQPAGKGLEWIGRIYTSGSTNYNPSLKSRVTISVDTSKNQFSLKLSSVTAADTAVYYCARVNYDLLTGRANFFDPWGQGTPVTVSS VL: EIVLTQSPGTLSLSPGERATLSCRASQSVSSRSVAWYQQKPGQAPRLLIYGASNRATGIPDRFSGSGSGTDFTLTISRLEPEDFVVFYCQQYGSSPLTFGGGTKVEIK	4	≤ 4 Fab per AQP4 tetramer and 3 Fab per AQP4 tetramer	–
Fab58, Fab fragment of patient-derived NMO recombinant antibody rAb58 (Fab, V domains shown, heavy chain (HC) of Fab58 in the deposited model PDB 8V91; light chain (LC) of Fab58 in the deposited model PDB 8V91; also called rAB58 Fab; source: rAb58 IgG from Expi293F (MabSelect purified), papain cleavage (Pierce Fab kit), Fc removed with Protein A agarose) VH: QVQLVESGGGLVQPGGSLRLSCAASGFTFRGYAMNWVRQAPGKGLEWVASISGSGSITQYADSAKGRFTITRDNSKSTLYAHVSSLRADDTAVYYCAKGDYVFDYWGQGTLVTVSS VL: DIQMTQSPSALSASVGDTVTITCRASQSIRSWLAWYQQKPGKAPKLLIYKASDLQSGVPSRFSGSGSGTDFTLTISGLQPDDFATYYCQHYNSYPYTFGQGTKVEIR	–	–	1
